# Results published in the RNAGym collection of RNA variant scans (doi:10.1073/pnas.2313332121).
# B1: TPR t1 (parent)
# chain: GACCAAUCUGCCCUCAGAGCUCGAGAACAUCUUCGGAUGCAGAGGAGGCAGGCUUCGGUGGCGCGAUAGCGCCAACGUCCUCAACCUCCAAUGCAUCCCACCACAUGAUGAUGCCUGAAGAGCCUUGGUUUUUUG
# Variants of: B1
# Experiment: polymerase ribozyme fitness, log enrichment relative to wild type (log ratio); higher = more active; in vitro selection for triplet polymerase activity
# How it was run: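 After PCR construction and transcription, each subunit's mutant library from a heterodimeric triplet polymerase ribozyme was annealed with a biotinylated primer, the partner subunit and triplets. Incubation was frozen, at −7 °C, and extended constructs were gel-excised, bound to streptavidin beads and amplified by RT-PCR, in one selection round done in triplicate. Fitness is the logarithm of a genotype's enrichment divided by that of the wild type, from inverse-variance-weighted replicate averages of Illumina-sequenced inputs and outputs. The base of the logarithm is 2, and genotypes needed ≥10 input reads and ≥1 read per output.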
row,Variant,polymerase ribozyme fitness (log ratio)
1,C8G C11G U54C U55G C56U,-1.33
2,C8G A16C G61C G71A G120C,-6.1
3,C8G C12A G39A C85U U112A G113C,-1.36
4,C8U A27C C72U C80A,-6.42
5,C8G C99U,-2.82
6,C8G C115U,-0.75
7,C8G C115G,1.06
8,C8U A27G G42U C56A A74C C89U A111C,-5.47
9,C8G U38A U54G C62A C98A C123U,-7.56
10,C8G G19U G48A A50U U54G C72U U92A U112A,-4.04
11,C8G C12U C15U G25A A27U G42C G61A U78C U112A U125A U131A,-6.3
12,C8G A41G A83G G110U A121G,-3.81
13,C8U A37U C49G U55A C104A,-1.74
14,C8G U87A C101A A105C,-3.4
15,C8G U14A G57A C97U A103C,-6.07
16,C8G C70A,-0.64
17,C8G C28A G61A,-3.79
18,C8G A41G U78G G122U,-0.0287
19,C8G C40A C49G G52U G120C U132A,0.561
20,C8G U132A,0.53
21,C8A U132A,0.369
22,C8G C56A U125A U133G,-0.732
23,C8G C13U C79A G117A U126A,-0.523
24,C8G A43G G69C,-3.18

row,Variant,polymerase ribozyme fitness (log ratio)
1,C8G A91C G122A,-0.3
2,C8G C53A G117A,0.922
3,C8G U9G G10U,-0.244
4,C8G G17C A29U U87G G120A,-2.2
5,C8G G61U,0.967
6,C8U A18U A37C G45U C53A G113A C124U,-2.69
7,C8G U32A,-3.34
8,C8G A16C C62A G71A G120C,-1.27
9,C8G A18U C22G G117U,-2.97
10,C8G C12U G42C G93A,-2.42
11,C8G G47A C97A G120U,-2.93
12,C8G G42C C70G,-5.8
13,C8G G19A A119G,-1.07
14,C8G C62U U106A G113U,-1.94
15,C8G C40A C98U G127C,-2.67
16,C8U A27U C34U G48U G60A C98U U112C G117U,-7.25
17,C8G G77C,0.232
18,C8G C80U,0.0565
19,C8G C53G A66U G120U,1.03
20,C8G G45A A84G C89U G117A,-2.7
21,C8G C11G G36U,0.581
22,C8G G69A C88A,-2.65
23,C8G C22G U125G U131G,-6
24,C8G A18G G19A A27C,-3.93

row,Variant,polymerase ribozyme fitness (log ratio)
1,C8G A74C G120C,1.98
2,C8G C49G,0.323
3,C8G C15U C22U,-4.73
4,C8G C20U U81G,-4.46
5,C8G G71U C82U C86U,-1.12
6,C8G A27G G93U C104A A111U U125C,-4.25
7,C8G C12U C15U G120U,2.64
8,C8G U55G C88A A121U G128U,0.0321
9,C8G C56U C97U,0.547
10,C8G A29U,-1.15
11,C8G C22G C53U C70U A84C,-3.45
12,C8G A29U U132C,-1.95
13,C8G A16U,0.648
14,C8G C22G C76A G77A,-5.05
15,C8G U33G C99A C101A,-5.4
16,C8G C11U C22G C72U,-3.41
17,C8G C22U C40G G120A C124A,-2.61
18,C8G C11A A50U U81C,-2.29
19,C8G A18C C89A,-0.827
20,C8G A50U G61U,0.00345
21,C8G G47A,-0.0438
22,C8G C20U G36C C49A A75G A100U,-2.01
23,C8G G65U,-5.38
24,C8G C31G,-6.18

row,Variant,polymerase ribozyme fitness (log ratio)
1,C8G A46G G110A,-0.456
2,C8G A95G,0.646
3,C8G G42U G45A C56U,-0.791
4,C8U A29G C94A U116G,-2.84
5,C8G A37C G48U C85A,0.211
6,C8G C82A A90U U92G G117U G120C,-1.01
7,C8G G19C C20U U21G U54C U87G,-4.85
8,C8G U14G C53U G71U,0.478
9,C8G C34U C53G A90U G120A,-5.88
10,C8G G39A C79A C82A C85A C114U,-4.81
11,C8G U14A,0.372
12,C8G A50U U54C G69U U106A G117A,0.535
13,C8G C40A C72A C98U G127C,-1.39
14,C8G U14A A29G C40G G44U G57C,-2.63
15,C8G G47C G69U U92A G93U C123A U126A,-3.8
16,C8G A37G G71A C123A U133G,1.08
17,C8G C34A C72G C82U G110U,-4.9
18,C8G G42U G58C,-0.604
19,C8G G42A G63A,-2.89
20,C8G A16G C56G A83C,0.0154
21,C8G C73U,0.902
22,C8G A100U C115U,-2.51
23,C8G G17U G48A G57U G69U A105U,-2.21
24,C8G G44U G61A U78A C82G C115A U130A,0.635

row,Variant,polymerase ribozyme fitness (log ratio)
1,C8U A16C C64U U112C U132A,1.19
2,C8G C12U G51A U129G,-3.08
3,C8G U87A U96G G110U G122C U129C,-3.4
4,C8G A18C C40U C72A C123G,0.381
5,C8U A26G U54C C72U,-2.88
6,C8G G36U A119G U133G,0.386
7,C8G G36U C70U,0.358
8,C8G G35C A90G,-2.66
9,C8G G93A,-0.604
10,C8G G60U C70U C79A U96C,-4.38
11,C8G C11G A24G C40U C56U C94U,-2.88
12,C8G G36U C49G C62G U129C,-3.6
13,C8G C62U C115U,-0.929
14,C8G G39A A43C C64U,-2.65
15,C8G A46G C97U G120U U132A,1.67
16,C8G C15G C76G,-1.01
17,C8G G19A A46C G71A,-3.53
18,C8G C56U C104A U129G,-1.17
19,C8G C13A A18U G51U C56A U116C,-5.95
20,C8G U81C,0.586
21,C8G U81A,0.387
22,C8G G128C,-0.73
23,C8G U14G G35C C64U C94U,-3.36
24,C8G G61C C89U C104U,-2.02

row,Variant,polymerase ribozyme fitness (log ratio)
1,C8G C49U G127A,-1.03
2,C8G C85A C124U,1.24
3,C8G C15A G63C,-0.139
4,C8G C13G A37C G52C C62G C86U,-4.08
5,C8G G60U U81A C123A,1.75
6,C8G C20U G113C,-1.52
7,C8G C34A U78C C97A G107A,-3.66
8,C8G C13G C40U U54G,0.0381
9,C8G C76U C82G G93A U116C,-2.26
10,C8G C13G C15G C34A A46C C88U C123U,-5.49
11,C8G C11G C20U G63C,-1.38
12,C8G C15G C70G C114U,-5.64
13,C8G C86G C114A,0.194
14,C8G G10U G69U U81C,-0.318
15,C8G C11U C40U G61C A90G C97U U129G,-3.08
16,C8G C11U U59A C62A G63U,-5.8
17,C8G C12G G17C C82A C102U C104A,-5.44
18,C8G C70G A100C C123A,-2.51
19,C8G G10C G19U A37U C53G,-3.79
20,C8G U54G C115A,2.13
21,C8G C76U G135A,-0.923
22,C8G A46U,-0.191
23,C8U A16U G47A C56A C101A C124U,-1.44
24,C8G A37U A90U G93C U132A,-2.23

row,Variant,polymerase ribozyme fitness (log ratio)
1,C8G A24C U38G G44A G63A C88U A95C G117U,-7.47
2,C8G G45U,-1.39
3,C8G U96C,0.587
4,C8G C20A,-1.49
5,C8G C20U,-1.02
6,C8G U9A G17C A95G C115A,-0.322
7,C8G G47C C86G C124A,1.6
8,C8G A27U G93U,-3.29
9,C8G A29C G48A C70U,-2.95
10,C8G C34G,-6.45
11,C8G C34U,-3.12
12,C8G G10C C73G U81A C88U,-1.77
13,C8G C73U A119U,0.0435
14,C8G C11U A121C U130A,1.01
15,C8G C62A,-0.27
16,C8G C62U,0.179
17,C8G G19A,-1.89
18,C8G C31U G71U G120U,-3.77
19,C8G C124U,0.949
20,C8G C12G,0.399
21,C8G C11U U21C U132A,-0.171
22,C8G U55G G61C,-0.439
23,C8G U21A G57C A108G U133C,-5.29
